Data taken from article PMC13382767.

Biological target: apo-CA-HNifU (N-terminal His-tagged NifU with cysteines 35, 62, 106, 272 and 275 mutated to alanine, core cluster removed) (A. vinelandii) (UniProt P05340)
Chain of UniProt P05340 (P05340 other isoform, or with tags, fused parts or gaps, change not shown): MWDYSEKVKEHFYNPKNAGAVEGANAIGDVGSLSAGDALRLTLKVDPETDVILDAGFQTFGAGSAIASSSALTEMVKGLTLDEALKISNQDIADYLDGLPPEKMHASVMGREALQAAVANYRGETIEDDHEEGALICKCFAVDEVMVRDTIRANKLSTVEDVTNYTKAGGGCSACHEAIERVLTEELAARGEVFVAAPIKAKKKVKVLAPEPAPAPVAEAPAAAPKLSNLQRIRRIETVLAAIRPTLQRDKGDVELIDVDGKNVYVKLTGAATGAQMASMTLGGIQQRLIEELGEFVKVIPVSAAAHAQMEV

With “C-terminal Strep-tagged A. vinelandii GrxD (GrxDS) (natural protein)” the iron transferred from GrxDS to EDTA-treated CA-HNifU (iron in the flowthrough NifU after incubation and separation in a Strep-column) was 1 iron and the iron transferred from GrxDS to urea-treated apo-CA-HNifU (iron in the flowthrough NifU after incubation and separation in a Strep-column) was 1.8 irons.
